In PMC5402964 one finds Kd data, which are given here for one substance.

One may read the Kd as the constant that tells how readily two partners part at equilibrium. Low readings indicate higher affinity, high ones lower affinity.

For the assay, the target named is α5β1 integrin (UniProt P08648). The assay can be described thus: SPR.

“DisBa-01 (disintegrin of Bothrops alternatus), recombinant His-tag protein (natural protein; other documents disagree on this pair)” returned a Kd of 76.2 µM. This counts as double-digit micromolar.
